From US20210261648A1 (published 2021)

T1: FcγRIIa type H extracellular domain with C-terminal His tag (human, UniProt P12318 34-217)
T1 construct: extracellular domain; also called FcgRIIaH; FcγRIIa H
T1 sequence (looked up): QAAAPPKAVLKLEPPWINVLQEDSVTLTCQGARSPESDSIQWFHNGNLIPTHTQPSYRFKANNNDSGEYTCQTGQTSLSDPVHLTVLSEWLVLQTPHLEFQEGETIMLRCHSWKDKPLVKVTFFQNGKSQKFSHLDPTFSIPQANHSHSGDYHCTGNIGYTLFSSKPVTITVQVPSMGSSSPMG

T2: FcγRIIb extracellular domain with C-terminal His tag (human, UniProt P31994 43-217)
T2 construct: extracellular domain; also called FcgRIIb
T2 sequence (looked up): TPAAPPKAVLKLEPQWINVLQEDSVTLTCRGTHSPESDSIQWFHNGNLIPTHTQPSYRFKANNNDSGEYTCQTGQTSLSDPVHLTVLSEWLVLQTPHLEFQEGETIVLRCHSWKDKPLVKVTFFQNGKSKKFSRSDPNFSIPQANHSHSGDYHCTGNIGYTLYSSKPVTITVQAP


What was measured:
Test in all cases: SPR, captured antibody, FcgR analyte
[1] = molecular target: T1, FcγRIIa type H extracellular domain …
Experimental: (§1) Relative binding activities were calculated for the results of analyzing interactions with the respective FcγRs according to the following method.

[2] = molecular target: T3, FcγRIa extracellular domain with C-terminal His tag (human, UniProt P12314 16-292)
T3 construct: also called FcgRIa
Experimental: as §1

[3] = molecular target: T2, FcγRIIb extracellular domain with …
Experimental: as §1

T3 sequence (P12314 16-292): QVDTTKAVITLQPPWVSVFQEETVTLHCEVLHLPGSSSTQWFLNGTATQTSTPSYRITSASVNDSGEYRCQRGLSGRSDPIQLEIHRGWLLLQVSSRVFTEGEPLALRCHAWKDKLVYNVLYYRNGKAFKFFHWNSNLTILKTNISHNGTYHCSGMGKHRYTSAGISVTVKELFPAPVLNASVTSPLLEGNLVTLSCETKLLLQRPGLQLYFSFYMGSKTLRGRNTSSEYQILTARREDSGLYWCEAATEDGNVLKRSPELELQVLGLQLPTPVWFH

Binder | relative binding activity [1] | relative binding activity [2] | relative binding activity [3]
IL6R-BP089/IL6R-L (antibody, human IgG1, kappa) heavy: QVQLQESGPGLVKPSETLSLTCAVSGHSISHDHAWSWVRQPPGEGLEWIGFISYSGITNYNPSLQGRVTISRDNSKNTLYLQMNSLRAEDTAVYYCARSLARTTAMDYWGEGTLVTVSSASTKGPSVFPLAPSSKSTSGGTAALGCLVKDYFPEPVTVSWNSGALTSGVHTFPAVLQSSGLYSLSSVVTVPSSSLGTQTYICNVNHKPSNTKVDKKVEPKSCDKTHTCPPCPAPEYLGGDSVFLFPPKPKDTLMISRTPEVTCVVVDVSHEDPEVKFNWYVDGVEVHNAKTKPREEQYNSTYRVVSVLTVLHQDWLNGKEYKCKVSNAALPKPIEKTISKAKGQPREPQVYTLPPSRDELTKNQVSLTCLVKGFYPSDIAVEWESNGQPENNYKTTPPVLDSDGSFFLYSKLTVDKSRWQQGNVFSCSVMHEALHNHYTQESLSLSP light: not shown | 186 relative (IL6R-BF648/IL6R-L = 100) | 43 relative (IL6R-BF648/IL6R-L = 100) | 147 relative (IL6R-BF648/IL6R-L = 100)
IL6R-BP145/IL6R-L (antibody, human IgG1, kappa) heavy: QVQLQESGPGLVKPSETLSLTCAVSGHSISHDHAWSWVRQPPGEGLEWIGFISYSGITNYNPSLQGRVTISRDNSKNTLYLQMNSLRAEDTAVYYCARSLARTTAMDYWGEGTLVTVSSASTKGPSVFPLAPSSKSTSGGTAALGCLVKDYFPEPVTVSWNSGALTSGVHTFPAVLQSSGLYSLSSVVTVPSSSLGTQTYICNVNHKPSNTKVDKKVEPKSCDKTHTCPPCPAPEYLGDDSVFLFPPKPKDTLMISRTPEVTCVVVDVSHEDPEVKFNWYVDGVEVHNAKTKPREEQYNSTYRVVSVLTVLHQDWLNGKEYKCKVSNKALPAPIEKTISKAKGQPREPQVYTLPPSRDELTKNQVSLTCLVKGFYPSDIAVEWESNGQPENNYKTTPPVLDSDGSFFLYSKLTVDKSRWQQGNVFSCSVMHEALHNHYTQESLSLSP light: not shown | 224 relative (IL6R-BF648/IL6R-L = 100) | 41 relative (IL6R-BF648/IL6R-L = 100) | 152 relative (IL6R-BF648/IL6R-L = 100)
IL6R-BP148/IL6R-L (antibody, human IgG1, kappa) heavy: QVQLQESGPGLVKPSETLSLTCAVSGHSISHDHAWSWVRQPPGEGLEWIGFISYSGITNYNPSLQGRVTISRDNSKNTLYLQMNSLRAEDTAVYYCARSLARTTAMDYWGEGTLVTVSSASTKGPSVFPLAPSSKSTSGGTAALGCLVKDYFPEPVTVSWNSGALTSGVHTFPAVLQSSGLYSLSSVVTVPSSSLGTQTYICNVNHKPSNTKVDKKVEPKSCDKTHTCPPCPAPDYLGDDSVFLFPPKPKDTLMISRTPEVTCVVVDVSHEDPEVKFNWYVDGVEVHNAKTKPREEQYNSTYRVVSVLTVLHQDWLNGKEYKCKVSNAALPKPIEKTISKAKGQPREPQVYTLPPSRDELTKNQVSLTCLVKGFYPSDIAVEWESNGQPENNYKTTPPVLDSDGSFFLYSKLTVDKSRWQQGNVFSCSVMHEALHNHYTQESLSLSP light: not shown | 462 relative (IL6R-BF648/IL6R-L = 100) | 33 relative (IL6R-BF648/IL6R-L = 100) | 176 relative (IL6R-BF648/IL6R-L = 100)
IL6R-BP149/IL6R-L (antibody, human IgG1, kappa) heavy: QVQLQESGPGLVKPSETLSLTCAVSGHSISHDHAWSWVRQPPGEGLEWIGFISYSGITNYNPSLQGRVTISRDNSKNTLYLQMNSLRAEDTAVYYCARSLARTTAMDYWGEGTLVTVSSASTKGPSVFPLAPSSKSTSGGTAALGCLVKDYFPEPVTVSWNSGALTSGVHTFPAVLQSSGLYSLSSVVTVPSSSLGTQTYICNVNHKPSNTKVDKKVEPKSCDKTHTCPPCPAPDYLGDDSVFLFPPKPKDTLMISRTPEVTCVVVDVSHEDPEVKFNWYVDGVEVHNAKTKPREEQDNSTYRVVSVLTVLHQDWLNGKEYKCKVSNAALPKPIEKTISKAKGQPREPQVYTLPPSRDELTKNQVSLTCLVKGFYPSDIAVEWESNGQPENNYKTTPPVLDSDGSFFLYSKLTVDKSRWQQGNVFSCSVMHEALHNHYTQESLSLSP light: not shown | 401 relative (IL6R-BF648/IL6R-L = 100) | 29 relative (IL6R-BF648/IL6R-L = 100) | 173 relative (IL6R-BF648/IL6R-L = 100)
IL6R-BP152/IL6R-L (antibody, human IgG1, kappa) heavy: QVQLQESGPGLVKPSETLSLTCAVSGHSISHDHAWSWVRQPPGEGLEWIGFISYSGITNYNPSLQGRVTISRDNSKNTLYLQMNSLRAEDTAVYYCARSLARTTAMDYWGEGTLVTVSSASTKGPSVFPLAPSSKSTSGGTAALGCLVKDYFPEPVTVSWNSGALTSGVHTFPAVLQSSGLYSLSSVVTVPSSSLGTQTYICNVNHKPSNTKVDKKVEPKSCDKTHTCPPCPAPDYLGDDSVFLFPPKPKDTLMISRTPEVTCVVVDVSHEDPEVKFNWYVDGVEVHNAKTKPREEQDNSTYRVVSVLTVLHQDWLNGKEYKCKVSNAALPRPIEKTISKAKGQPREPQVYTLPPSRDELTKNQVSLTCLVKGFYPSDIAVEWESNGQPENNYKTTPPVLDSDGSFFLYSKLTVDKSRWQQGNVFSCSVMHEALHNHYTQESLSLSP light: not shown | 548 relative (IL6R-BF648/IL6R-L = 100) | 34 relative (IL6R-BF648/IL6R-L = 100) | 178 relative (IL6R-BF648/IL6R-L = 100)
IL6R-BP177/IL6R-L (antibody, human IgG1, kappa) heavy: QVQLQESGPGLVKPSETLSLTCAVSGHSISHDHAWSWVRQPPGEGLEWIGFISYSGITNYNPSLQGRVTISRDNSKNTLYLQMNSLRAEDTAVYYCARSLARTTAMDYWGEGTLVTVSSASTKGPSVFPLAPSSKSTSGGTAALGCLVKDYFPEPVTVSWNSGALTSGVHTFPAVLQSSGLYSLSSVVTVPSSSLGTQTYICNVNHKPSNTKVDKKVEPKSCDKTHTCPPCPAPDYLGDDSVFLFPPKPKDTLMISRTPEVTCVVVDVSHEDGEVKFNWYVDGVEVHNAKTKPREEQYNSTYRVVSVLTVLHQDWLNGKEYKCKVSNDALPKPIEKTISKAKGQPREPQVYTLPPSRDELTKNQVSLTCLVKGFYPSDIAVEWESNGQPENNYKTTPPVLDSDGSFFLYSKLTVDKSRWQQGNVFSCSVMHEALHNHYTQESLSLSP light: not shown | 409 relative (IL6R-BF648/IL6R-L = 100) | 57 relative (IL6R-BF648/IL6R-L = 100) | 177 relative (IL6R-BF648/IL6R-L = 100)
IL6R-BP150/IL6R-L (antibody, human IgG1, kappa) heavy: QVQLQESGPGLVKPSETLSLTCAVSGHSISHDHAWSWVRQPPGEGLEWIGFISYSGITNYNPSLQGRVTISRDNSKNTLYLQMNSLRAEDTAVYYCARSLARTTAMDYWGEGTLVTVSSASTKGPSVFPLAPSSKSTSGGTAALGCLVKDYFPEPVTVSWNSGALTSGVHTFPAVLQSSGLYSLSSVVTVPSSSLGTQTYICNVNHKPSNTKVDKKVEPKSCDKTHTCPPCPAPEYLGDDSVFLFPPKPKDTLMISRTPEVTCVVVDVSHEDPEVKFNWYVDGVEVHNAKTKPREEQYNSTYRVVSVLTVLHQDWLNGKEYKCKVSNAALPRPIEKTISKAKGQPREPQVYTLPPSRDELTKNQVSLTCLVKGFYPSDIAVEWESNGQPENNYKTTPPVLDSDGSFFLYSKLTVDKSRWQQGNVFSCSVMHEALHNHYTQESLSLSP light: not shown | 770 relative (IL6R-BF648/IL6R-L = 100) | 30 relative (IL6R-BF648/IL6R-L = 100) | 183 relative (IL6R-BF648/IL6R-L = 100)
IL6R-BP179/IL6R-L (antibody, human IgG1, kappa) heavy: QVQLQESGPGLVKPSETLSLTCAVSGHSISHDHAWSWVRQPPGEGLEWIGFISYSGITNYNPSLQGRVTISRDNSKNTLYLQMNSLRAEDTAVYYCARSLARTTAMDYWGEGTLVTVSSASTKGPSVFPLAPSSKSTSGGTAALGCLVKDYFPEPVTVSWNSGALTSGVHTFPAVLQSSGLYSLSSVVTVPSSSLGTQTYICNVNHKPSNTKVDKKVEPKSCDKTHTCPPCPAPELLGDDSVFLFPPKPKDTLMISRTPEVTCVVVDVSHEDGEVKFNWYVDGVEVHNAKTKPREEQYNSTYRVVSVLTVLHQDWLNGKEYKCKVSNAALPKPIEKTISKAKGQPREPQVYTLPPSRDELTKNQVSLTCLVKGFYPSDIAVEWESNGQPENNYKTTPPVLDSDGSFFLYSKLTVDKSRWQQGNVFSCSVMHEALHNHYTQESLSLSP light: not shown | 226 relative (IL6R-BF648/IL6R-L = 100) | 39 relative (IL6R-BF648/IL6R-L = 100) | 177 relative (IL6R-BF648/IL6R-L = 100)
IL6R-BP147/IL6R-L (antibody, human IgG1, kappa) heavy: QVQLQESGPGLVKPSETLSLTCAVSGHSISHDHAWSWVRQPPGEGLEWIGFISYSGITNYNPSLQGRVTISRDNSKNTLYLQMNSLRAEDTAVYYCARSLARTTAMDYWGEGTLVTVSSASTKGPSVFPLAPSSKSTSGGTAALGCLVKDYFPEPVTVSWNSGALTSGVHTFPAVLQSSGLYSLSSVVTVPSSSLGTQTYICNVNHKPSNTKVDKKVEPKSCDKTHTCPPCPAPEYLGDDSVFLFPPKPKDTLMISRTPEVTCVVVDVSHEDPEVKFNWYVDGVEVHNAKTKPREEQYNSTYRVVSVLTVLHQDWLNGKEYKCKVSNAALPKPIEKTISKAKGQPREPQVYTLPPSRDELTKNQVSLTCLVKGFYPSDIAVEWESNGQPENNYKTTPPVLDSDGSFFLYSKLTVDKSRWQQGNVFSCSVMHEALHNHYTQESLSLSP light: not shown | 582 relative (IL6R-BF648/IL6R-L = 100) | 24 relative (IL6R-BF648/IL6R-L = 100) | 177 relative (IL6R-BF648/IL6R-L = 100)
IL6R-BP180/IL6R-L (antibody, human IgG1, kappa) heavy: QVQLQESGPGLVKPSETLSLTCAVSGHSISHDHAWSWVRQPPGEGLEWIGFISYSGITNYNPSLQGRVTISRDNSKNTLYLQMNSLRAEDTAVYYCARSLARTTAMDYWGEGTLVTVSSASTKGPSVFPLAPSSKSTSGGTAALGCLVKDYFPEPVTVSWNSGALTSGVHTFPAVLQSSGLYSLSSVVTVPSSSLGTQTYICNVNHKPSNTKVDKKVEPKSCDKTHTCPPCPAPELLGDDSVFLFPPKPKDTLMISRTPEVTCVVVDVSHEDGEVKFNWYVDGVEVHNAKTKPREEQYNSTYRVVSVLTVLHQDWLNGKEYKCKVSNKALPKPIEKTISKAKGQPREPQVYTLPPSRDELTKNQVSLTCLVKGFYPSDIAVEWESNGQPENNYKTTPPVLDSDGSFFLYSKLTVDKSRWQQGNVFSCSVMHEALHNHYTQESLSLSP light: not shown | 203 relative (IL6R-BF648/IL6R-L = 100) | 29 relative (IL6R-BF648/IL6R-L = 100) | 179 relative (IL6R-BF648/IL6R-L = 100)
